In US20090324538A1 one finds inhibition of c264scTCR/huIL15 stimulatory activity on CTLL-2 proliferation after complex formation and proliferation of 32Dβ cells (WST-1), lowest concentration with biological activity data, which are given here for two substances.

For test [1], the target named is heterotrimeric IL-15R (αβγc chains) on CTLL-2 cells (UniProt Q60819). As to the kind of experiment: cell-based or functional assay.
For test [2], the target named is IL-15Rβγc receptors on 32Dβ cells. Description: cell-based or functional assay.

Sequence of UniProt Q60819 (Q60819 33-263, chain 1 of 3): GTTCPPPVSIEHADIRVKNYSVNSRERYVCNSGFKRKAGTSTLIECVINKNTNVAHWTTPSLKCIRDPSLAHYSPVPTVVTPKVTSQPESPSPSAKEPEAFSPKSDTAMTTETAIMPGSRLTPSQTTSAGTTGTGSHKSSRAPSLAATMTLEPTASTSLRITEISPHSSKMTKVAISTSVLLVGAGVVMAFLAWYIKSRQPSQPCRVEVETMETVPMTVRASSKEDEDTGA
Sequence of UniProt Q60819 (P16297 27-539, chain 2 of 3, further chain): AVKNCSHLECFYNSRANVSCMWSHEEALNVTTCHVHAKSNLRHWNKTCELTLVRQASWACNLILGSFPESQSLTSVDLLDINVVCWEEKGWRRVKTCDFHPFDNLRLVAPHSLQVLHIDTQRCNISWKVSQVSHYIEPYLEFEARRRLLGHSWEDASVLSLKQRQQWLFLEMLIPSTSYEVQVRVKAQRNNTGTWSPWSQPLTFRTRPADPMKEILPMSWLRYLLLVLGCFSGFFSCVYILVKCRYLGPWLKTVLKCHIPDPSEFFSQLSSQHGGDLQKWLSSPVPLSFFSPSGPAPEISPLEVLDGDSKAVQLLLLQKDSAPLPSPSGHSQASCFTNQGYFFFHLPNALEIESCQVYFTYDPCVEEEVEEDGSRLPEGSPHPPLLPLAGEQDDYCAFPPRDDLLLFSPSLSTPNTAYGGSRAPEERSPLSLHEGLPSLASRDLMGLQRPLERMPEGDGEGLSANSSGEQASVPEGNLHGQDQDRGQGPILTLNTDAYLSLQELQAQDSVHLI
Sequence of UniProt Q60819 (P34902 23-369, chain 3 of 3, further chain): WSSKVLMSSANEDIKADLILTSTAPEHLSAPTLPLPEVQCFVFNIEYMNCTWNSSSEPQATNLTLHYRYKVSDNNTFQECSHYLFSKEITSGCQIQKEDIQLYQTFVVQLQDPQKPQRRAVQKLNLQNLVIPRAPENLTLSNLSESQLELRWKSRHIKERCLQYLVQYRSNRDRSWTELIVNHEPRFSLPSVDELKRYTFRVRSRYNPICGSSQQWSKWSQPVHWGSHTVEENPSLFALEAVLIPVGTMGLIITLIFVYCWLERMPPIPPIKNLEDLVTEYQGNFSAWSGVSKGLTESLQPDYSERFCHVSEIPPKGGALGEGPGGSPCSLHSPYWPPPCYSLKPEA

On to “c264scTCR/huIL15+c264scTCR/huIL15RαΔE3 fusion protein complex (from UniProt Q13261 31-205)”, for which, in test [1], the inhibition of c264scTCR/huIL15 stimulatory activity on CTLL-2 proliferation after complex formation was found to be 4 fold.

In the case of “c264scTCR/huIL15N72D fusion protein (from UniProt P01857 99-113)”, in test [2], the proliferation of 32Dβ cells (WST-1), lowest concentration with biological activity was found to be 80 pM.
